{"source": "patent US20090263380A1", "about": "(published 2009)", "key": {"[1]": {"biological_target": "T1, human monoclonal anti-C1 domain of Factor VIII antibody RHD5", "T1 sequence (VH, as listed by the source, chain 1 of 2)": "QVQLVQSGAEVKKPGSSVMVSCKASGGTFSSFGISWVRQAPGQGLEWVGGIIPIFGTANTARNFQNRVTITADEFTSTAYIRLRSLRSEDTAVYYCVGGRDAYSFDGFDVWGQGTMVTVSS", "T1 sequence (VL, as listed by the source, chain 2 of 2)": "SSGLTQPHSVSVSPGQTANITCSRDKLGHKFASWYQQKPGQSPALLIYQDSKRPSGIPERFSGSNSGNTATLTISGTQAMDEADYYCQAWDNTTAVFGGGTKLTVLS", "assay": "cell-based or functional assay"}, "[2]": {"biological_target": "T1, human monoclonal anti-C1 domain of …", "assay": "competition ELISA, 18B6 with RHD5 2 µg/ml, RHD5 binding to coated recFVIII", "description": "Recombinant Factor VIII (recFVIII) (Baxter) at 2 μg/ml in a glycine buffer, 50 μl/well, was insolubilized, then left for 2 hours at room temperature. The RHD5 antibody (or an irrelevant IgG1) at 0.6 μg/ml final concentration was pre-incubated over 2 hours with the culture supernatants in a dilution 1/1, 1/2 and 1/4 in Magic Buffer. The wells were washed 3 times with a PBS/Tween buffer, then saturated with 100 μl/well of Magic Buffer (30 min at room temperature). Afterwards, the culture supernatant was incubated with 50 μl of RHD5 (or irrelevant IgG1) (2 hours at room temperature, Magic Buffer), then, 3 washings were performed. The RHD5 antibodies bound to insolubilized recFVIII were detected by addition of 50 μl/well of a mouse polyclonal human anti-IgG HRP-labelled (Southern Biotechnology) antibodies solution of 1 μg/ml in Magic Buffer. Three successive washings were carried out with PBS/Tween, then revelation carried out with a chromogen (OPD ortho-phenyl diamine) and a reading of the obtained coloration intensity with a reader having filters corresponding to wavelengths 490/650 nm (reader Emax Molecular Devithese, Sunnyvale, Calif.).\nThe inhibition of RHD5 antibody binding to insolubilized recombinant FVIII was measured according to the protocol described in point IV. The concentration of used RHD5 is equal to 2 μg/ml."}, "[3]": {"biological_target": "T1, human monoclonal anti-C1 domain of …", "assay": "SPR (BIAcore), RHD5 immobilized on CM5, 18B6 infused", "description": "The binding kinetics of the anti-idiotypic antibody 18B6 to inhibitor RHD5 antibody was evaluated by use of the <<Surface plasmon resonance Biacore>> method using the Pharmacia Biosensor BIAcore (Pharmacia Biosensor AB, Uppsala, Sweden). The RHD5 antibodies were immobilized on the activated surface of a CM5 probe. The anti-idiotypic antibodies 18B6 were infused in different RHD5 concentrations immobilized on the surface of the probe. The association and dissociation constants were determined: […]"}}}
{"binder": "anti-idiotypic antibody 18B6 (antibody, V domains shown, also called 18B6 anti-RHD5 clone) VH: QVQLQQSGAELAKPGASVKMSCKASGYTFTTYWMHWIKQRPGQDLEWIGYINPTSGYTEYNQNFKDKATLTADKSSSTAYMQLNSLTSEDSAVYFCARSGAYYRYDDAMDSWGQGTSVTVSS VL: QIVLSQSPAILSASPGEKVTMTCRASSSVSYMNWYQQKPGSSPKPWIYATSNLASGVPARFSGSGSGTSYSLTISRVEAEDAATYYCQQWSSNPPMLTFGAGTKLELK", "values": [{"measurement": "neutralisation of RHD5 inhibitory activity at an equimolar RHD5/18B6 ratio", "setting": "[1]", "result": 50, "unit": "%"}, {"measurement": "inhibition of binding at an equimolar ratio (%)", "setting": "[2]", "result": 92, "unit": "%"}, {"measurement": "molar ratio RHD5/18B6 giving 50% inhibition", "setting": "[2]", "result": 2.5, "unit": "molar ratio RHD5/18B6"}, {"measurement": "Kd", "setting": "[3]", "result": 3.4, "unit": "nM"}, {"measurement": "koff", "setting": "[3]", "result": "1.45e-05", "unit": "s⁻¹"}, {"measurement": "kon", "setting": "[3]", "result": 4260, "unit": "M⁻¹ s⁻¹"}]}
